Measured values taken from patent US20250340659A1 (PETMEDIX, published 2025).
Positions count from the first letter of the chain named.

T1: canine OX40L, full length membrane form, expressed on HEK293 cells (canine)
T1 chain: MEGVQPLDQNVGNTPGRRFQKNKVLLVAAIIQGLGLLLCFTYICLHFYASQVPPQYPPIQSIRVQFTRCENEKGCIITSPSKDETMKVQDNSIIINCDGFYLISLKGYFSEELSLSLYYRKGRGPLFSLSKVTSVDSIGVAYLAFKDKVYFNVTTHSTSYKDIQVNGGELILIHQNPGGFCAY

T2: recombinant canine OX40L ECD-TNCc-HIS protein (canine)
T2 construct: also called Trimeric OX40L probe (HIS tag); trimeric canine OX40L
T2 chain: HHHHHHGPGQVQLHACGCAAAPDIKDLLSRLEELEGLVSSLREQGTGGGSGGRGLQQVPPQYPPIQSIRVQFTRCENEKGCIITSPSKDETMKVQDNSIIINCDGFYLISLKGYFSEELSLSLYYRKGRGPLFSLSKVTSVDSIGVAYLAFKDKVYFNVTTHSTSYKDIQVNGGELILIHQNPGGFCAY

B1: PMX083 (antibody, V domains shown)
VH: EVQLVESGGDLVKPGGSLRLSCVASGFTFRTYHMSWVRQAPGKGLQWVAYITRDGISTTYTDAVKGRFTISRDNAKNTLFLQMNSLRADDTAVYYCASDLVLVLGAPFYWGQGTLVTVSS
VL: SYELTQPPSVNVTLGETAHITCGGDSIGRKYVQWIQQNPGQAPVVIIYKDSNRPTGIPERFSGANSGNTATLTISGALAEDEADYYCQVGDSGTKAVFGEGTQLTVL
notes: also called PMX83
B2: PMX085 (antibody, V domains shown)
VH: EVKLVESGGDLVKPEGSLRLSCVVSGFTFSRYGMSWVRQAPGKGLQWVAYISSDGRSSSYTDAVQGRFTISSDNAKNTLYLQMNSLTTEDTAVYYCAKLGRGFNFNFWGQGTLVTVSS
VL: SYVLTQLPSKNVTLKQPAHITCGGDNIGSKSVHWYQQKLGQAPVLIIYYDSSRPTGIPERFSGANSGNTATLTISGALAEDEADYYCQVWDSSASVFGGGTHLTVL
notes: also called PMX85
B3: PMX291 (antibody, V domains shown)
VH: EVQLVESGGDLLKPGGSLRLSCVASGFPFRNYDMTWVRQAPGKGLQWVAAIHYDGSNTYYTDAVKGRFTISRDNARNTVFLQMNSLRAEDTAVYYCAKKFNNYRPFDYWGQGTLVTVSS
VL: DIVMTQTPPSLSVSPRETPSISCKASQSLLRSDGNTYLEWYLQKPGQSPQLLIYLVSNRFTGVSDRFSGSGSGTDFTLRISRVEANDAGVYYCGQGTQLPWTFGAGTKVELK
B4: PMX086 (antibody, V domains shown)
VH: EVQLVESGGDLVKPGGSLRLSCVASGFTFSSYHMSWVRQAPGKGLQWVAFINSAESSTTYADAVKGRFTISRDNAKNTLYLQMNSLRAEDTAVYYCAGGYIWTHFDYWGQGTLVTVSS
VL: SYVLTQLPSVSVTLRQTARITCGGDIIGSKSVYWYQQNLGQAPVLIIYRDTNRPTGIPERFSGASSGNTATLTISGALAEDEADYYCQVWDSSTSVFGGGTHLTVL
B5: PMX292 (antibody, V domains shown)
VH: AVQLVESGGDLVRPGGSLRLSCVASGFTFSNFDMYWVRQAPGRGLQWVATISYDGFNTYSTDTVRGRFTISRDNARNTVYLQMNSLRVEDTAVFYCTARRFGLGYWGQGTLVTVSS
VL: DIFMAQTPPSLSVSPRETASISCKASQSLLHSDGNTYLDWYLQKPGQSPQLLIYLVSNRFPGVSDRFSGSGSGTGFTLRISRVEASDTGVYYCGQGTQLPYTFSQGTKLEIK
B6: PMX098 (antibody, V domains shown)
VH: EVQLVESGGDLVKPGGSLRLSCVASGFTFNTYHMNWVRQAPGKGLHWVAFINSGGSGTSYADTVKGRFTISRDYAKNTLYLQMNSLRAEDTAVYYCASGSIWTHFDYWGQGTLVTVSS
VL: SYVLTQLPSVSLTLRQTAHITCGGDIIGSKSVYWYQQKLGQAPVLIIYRDNNRPTGIPERFSGASSGNTATLTISGALAEDEADYYCQVWDSSTQAMFGGGTHLTVL
B7: PMX088 (antibody, V domains shown)
VH: B6 VH with S56T, S59G, A61S, A97V
VL: B6 VL with L12M, N51T, S93N, M97V
B8: PMX087 (antibody, V domains shown)
VH: B6 VH with Q3H, N30S, T31N, N35S, H46Q, T63A, N77S, S100Y
VL: B4 VL with S31N, N38K, V44I, T51S
B9: PMX110 (antibody, V domains shown)
VH: B4 VH with K13R, A54G, E55G, A63V, K65R, N74Y, G98S, Y100S, W102L
VL: B6 VL with Y2F, L12V, H19R, I26S, I27V, N51S, S92N, T94N, Q95K
B10: PMX107 (antibody, V domains shown)
VH: AVQLVESGGDLVRPGGSLRLSCVASGFTFSSYHMNWVRQAPGKGLQWVAFINSGGSSTTYADVVRGRFTISRDYAKNTLFLQMNSLRAEDTAVYYCAIVSIWTHFDYWGQGTLVTVSS
VL: B6 VL with Y2F, L12V, H19R, S31N, K38R, I47L, N51T, S92N, T94N, Q95K
B11: PMX109 (antibody, V domains shown)
VH: B10 VH with A1E, S30T, S31N, N35S, A61T, F80Y, R87T, I98S, V99G, Y107H
VL: B6 VL with Y2F, L12V, H19R, I26S, I27V, N51S, S92N, T94N, Q95K, M97I
B12: PMX108 (antibody, V domains shown)
VH: EVQLVESGGDLVRPGGSLRLSCVASGFTFTNYHMSWVRQAPGKGLQWVAFINSGGSSTTYTDVVRGRFTISRDYAKNTLYLQMNSLTAEDTAVYYCASGAIWTHFDHWGQGTLVTVSS
VL: B6 VL with Y2F, L12V, H19R, I26S, I27V, N51S, S92N, T94N, Q95K, M97I
B13: PMX111 (antibody, V domains shown)
VH: B10 VH with A1E, G55A, T58A, F80Y, I98S, V99G, Y107F
VL: B6 VL with Y2F, L12V, H19R, I26S, I27V, N51S, S92N, T94N, Q95K

Tests used:
[1] = target: T1, canine OX40L, full length membrane …; assay: cell-based or functional assay
[2] = target: T1, canine OX40L, full length membrane …; assay: flow cytometry
Method: (§1) CHO supernatants diluted in FACS buffer (PBS containing 3% FBS) at 1, 5 or 10 μg/ml were used to screen for their binding capacity to canine OX40L using a cell-based assay. In brief, HEK293 or MEF cells (or any other commonly used cell lines) expressing canine OX40L at the cell surface are incubated with 100 μll of FACS buffer containing the candidate antibody for 30′ on ice. Cells are washed with 150 μl FACS buffer followed by centrifugation at 300 g for 3 min. The cell pellet is resuspended in FACS buffer containing a 1:1000 dilution of a fluorescently labelled secondary antibody recognising the canine Fc region of the test antibody for 30 min in the dark, followed by washing with 150 μl FACS buffer. Cells are resuspended in FACS buffer and flow cytometry performed using either a […] cytometer, followed by data analysis using FlowJo (FIG. 6 and Table 4).

[3] = target: T1, canine OX40L, full length membrane …; assay: flow cytometry, OX40L HEK minus WT HEK
Method: as §1

[4] = target: T2, recombinant canine OX40L ECD-TNCc-HIS …; assay: SPR KD1, bivalent analyte model
Method: (§2) Affinity (Kd) of OX40L antibodies is measured by SPR, using a recombinant canine OX40L ECD-TNCc-HIS protein (Seq ID 811) as the capturing agent (FIG. 5B).
(§3) Functional affinity is determined using a Biakore 8K (Cytiva). in brief, purified OX40L ECD-TNCc-HIS protein is covalently bound at low density to the surface of a CM5 sensor chip (Cytiva) by amine coupling, using the manufacturer's recommended protocol. Candidate antibodies are subsequently passed across the chip surface at a range of concentrations and affinity determined using the dedicated software (Biacore Insight Evaluation Software). Curves were fitted using a bivalent analyte binding model.

[5] = target: T2, recombinant canine OX40L ECD-TNCc-HIS …; assay: SPR Koff (kd2)
Method: as §2, §3

[6] = target: T2, recombinant canine OX40L ECD-TNCc-HIS …; assay: SPR Koff (kd1)
Method: as §2, §3

Row | Binder | % Signal Inhibition Average [1] [%] | % Signal Inhibition Rep1 [1] [%] | % Signal Inhibition Rep2 [1] [%] | % Signal Inhibition Rep3 [1] [%] | GEO mean OX40L expressing HEK [2] | GEO mean difference [3] | Kd [4] [nM] | koff [5] [s⁻¹] | koff [6] [s⁻¹]
1 | B1 | 71.1 | 66 | 65.8 | 81.6 | 701000 | 690000 |  |  | 
2 | B2 | 46.9 | 43.8 | 56.2 | 40.8 | 839000 | 826000 |  |  | 
3 | B3 | 73.3 | 95.9 | 70.3 | 53.6 | 463000 | 459000 |  |  | 
4 | B4 | 18.3 | 5.85 | 35.1 | 14 | 857000 | 849000 |  |  | 
5 | B5 | 71.6 | 97.5 | 54.4 | 62.9 | 471000 | 467000 |  |  | 
6 | B6 | 45 | 40.4 | 55 | 39.8 |  |  | 14.1 | 1.03 | 0.00147
7 | B7 | 7.21 | 17 | 3.51 | 1.17 | 783000 | 775000 |  |  | 
8 | B8 | 32.6 | 29.8 | 46.2 | 21.6 | 1.05e+06 | 1.04e+06 |  |  | 
9 | B9 | 37.4 | 55.2 | 43.1 | 13.7 | 31900 | 28400 |  |  | 
10 | B10 | -5.31 | 7.14 | 20.9 | -44 | 58800 | 55200 |  |  | 
11 | B11 | 53.3 | 67.9 | 69.5 | 22.5 | 633000 | 629000 |  |  | 
12 | B12 | 82.2 | 95.6 | 89.8 | 61.3 | 611000 | 607000 |  |  | 
13 | B13 | 38.9 | 44.2 | 37.4 | 35.2 | 647000 | 643000 |  |  | 
